Data reported in publication PMC314469, “Protein Interaction Networks by Proteome Peptide Scanning” (PLoS Biology, 2004).

T1: amphyphisin SH3 (AMPH_HUMAN), P49418
T1 chain: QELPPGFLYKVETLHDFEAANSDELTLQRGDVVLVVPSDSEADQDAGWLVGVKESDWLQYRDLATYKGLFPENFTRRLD


What was measured:
[1] = target: endophilin SH3 (SH3G2_HUMAN), Q99962; assay: SPOT array
[2] = target: T1, amphyphisin SH3 (AMPH_HUMAN), P49418; assay: SPOT array

Row | normalised SPOT signal, Boehringer light units (BLU); mean over the file's lines of this peptide [1] | normalised SPOT signal, Boehringer light units (BLU); mean over the file's lines of this peptide [2] | Binder
1 | 3.4 | 19.8 | VNEGPPKPPTELEP [AAH32298 448-462]
2 | 352 | 71.9 | VPKPPPKPPSPPAP [P17405 180-194]
3 | 1190 | 45.5 | VMQSLRRPSSSGSS [O60269 443-456]
4 | 32 | 33.1 | SKKGFRRPSEKNQH [P17010 781-794]
5 | 32 | 30.3 | VKLKIKRPYGRKSQ [O60281 820-833]
6 | 177 | 743 | VMASLRRPKRIIIR [P78527 3728-3741]
7 | 97.6 | 4010 | VHGDIFRPPRKGML [Q99805 351-364]
8 | 5710 | 5100 | VPPRPPRPPETART [P52849 69-83]
9 | 303 | 475 | VLPKFPRPVRTQEQ [Q92543 889-902]
10 | 8910 | 609 | SISKPERPMKFLRE [P31321 38-51]
11 | 498 | 169 | VGTLPSKPPFRFGQ [O60318 21-35]
12 | 43.6 | 41.5 | VPPGLRRPGPGTLY [P56945 374-387]
13 | 21900 | 23100 | VLPPPPRPPQRRSR [BAC05199 62-76]

The remaining lines, values behind:

Row | Binder | normalised SPOT signal, Boehringer light units (BLU); mean over the file's lines of this peptide [1] | normalised SPOT signal, Boehringer light units (BLU); mean over the file's lines of this peptide [2]
14 | VKIPPKRPPRKHIV [Q8WVK0 107-121] | 14900 | 17500
15 | VNVVFRRPLRPADP [Q96FY0 68-81] | 266 | 768
16 | VLDFPRRPPWSYEM [Q96CT5 125-139] | 397 | 53.9
17 | VNLKLRRPSFRDDI [O00467 301-314] | 60.4 | 60.6
18 | VKLLIRRPESFGPA [Q15413 2218-2231] | 144 | 40.2
19 | VKRRPGRPRKSPLQ [Q9NR48 1846-1859] | 107 | 167
20 | VPQKPERPPLPPEP [Q9H7F7 96-110] | 4660 | 216
21 | VLQHLRRPVALQLD [Q9HC29 785-798] | 58.9 | 43.5
22 | VGTELLRPLRGLLS [Q9NX26 97-110] | 112 | 320
23 | VLLKLRRPVVGSSE [Q14596 255-268] | 233 | 32.8
24 | VLAEIPRPLKRRGS [Q9Y290 36-49] | 205 | 138
25 | VPLPPARPPTRDNP [Q13191 775-789] | 592 | 1730
26 | VNRGPKRPKVLQRG [Q9UDR8 470-483] | 142 | 9
27 | VKPGLRRPPASPAL [Q05215 182-195] | 34.9 | 32.8
28 | VLAELPRPRRPPLQ [Q9NSY0 101-114] | 244 | 596
29 | VLTALRRPARSSWH [Q8WW71 300-313] | 395 | 1860
30 | VLLPPPRPTRKRSL [Q9P2L7 767-780] | 7360 | 8360
31 | VNRPLVRPQKRLSS [Q9BWX5 222-235] | 6270 | 253
32 | VKKIPKKPPAPDPF [Q9UQN5 1344-1358] | 2740 | 56.8
33 | VLGVLRRPLEAPPE [Q03169 136-149] | 5.5 | 1.1
34 | VPPPPARPPPRSAR [Q8WY41 65-79] | 11800 | 14700
35 | VLALPGKPPFLTQL [P05771 392-406] | 474 | 57.3
36 | VMARLSRPERPDLV [Q9HCS7 3-16] | 1160 | 1410
37 | VPMPIARPARQTSR [Q9Y6R4 202-215] | 1680 | 9590
38 | VNIVPKKPPLLDRP [Q96NB9 30-44] | 114 | 34.8
39 | SKAYPKRPLLGLVL [Q9GZR7 380-393] | 385 | 12.5
40 | VKMQLRRPSDQEVS [Q04864 259-272] | 382 | 81.1
41 | VPGDPRRPYPTDLE [Q9NPJ6 168-181] | 39.7 | 11.9
42 | VHLKLRRPVTVPAG [Q9BT99 240-253] | 64.9 | 28
